# Measured values from patent publication US20240117018A1.
# B1: N49P22 (antibody, V domains shown)
# V domain 1: HIQLLQSGPQVKKSGDTVRISCETSGYNFVDSRIHWVRQTPEKRLRWMGWINPLQGGVNYAPEFQGRIRMTRDTFIDTVYVDLSGLTPADTAYYYCARGIDGKSYPFHFWGHGTRVTVFS
# V domain 2: RFALTQPASVSGSPGQTITITCAGGSVSWFHFPPGKTPRLIIYESSKRPSGVSPRFSGSQSGSTASLIISGLQSDDEGTYFCSILEFFGRGTLVTVLS
# B2: N49P23 (antibody, V domains shown)
# VH: QVRLVQSGAGARKTGASMKLSCSTSGYTFTTHHGHFINWVRQARGQGLEWMGWMNPMTGQMNIEGKFQGRVTLTRDIYSDTAYMEMTRLTTGDTGTYYCARGDFGQNYPFHYWGQGSLVIVSS
# VL: LSALTQPASVSGSPGQSVTISCSGTNRYLVSWYQQHPDKAPKLIIYDDNKRPSGISDRFSASRPDDTASLTISGLQTGDEATYWCASYERFGGGTRLTVLS
# How the values were obtained:
# Experiment in all cases: cell-based or functional assay
# [1] = biological target: 191955_A11 Env pseudovirus (HIV-1)
# [2] = biological target: HIV-0013095-2.11 Env pseudovirus (HIV-1)
# [3] = biological target: 928-28 Env pseudovirus (HIV-1)
# [4] = biological target: Ce703010054_2A2 Env pseudovirus (HIV-1)
# [5] = biological target: CNE19 Env pseudovirus (HIV-1)
# [6] = biological target: Du156.12 Env pseudovirus (HIV-1)
# [7] = biological target: 191084 B7-19 Env pseudovirus (HIV-1)
# [8] = biological target: HIV-001428-2.42 Env pseudovirus (HIV-1)
# [9] = biological target: REJO4541.67 Env pseudovirus (HIV-1)
# [10] = biological target: THRO4156.18 Env pseudovirus (HIV-1)
# [11] = biological target: ZM53M.PB12 Env pseudovirus (HIV-1)
# [12] = biological target: Ce2010_F5 Env pseudovirus (HIV-1)
# [13] = biological target: CAAN5342.A2 Env pseudovirus (HIV-1)
# [14] = biological target: MuLV envelope (negative control pseudovirus) (MuLV)
# [15] = biological target: CNE52 Env pseudovirus (HIV-1)
# [16] = biological target: BF1266.431a Env pseudovirus (HIV-1)
# [17] = biological target: Du422.1 Env pseudovirus (HIV-1)
# [18] = biological target: ZM135M.PL10a Env pseudovirus (HIV-1)
# [19] = biological target: 263-8 Env pseudovirus (HIV-1)
# [20] = biological target: 6244_13_B5_4576 Env pseudovirus (HIV-1)
# [21] = biological target: Ce0682_E4 Env pseudovirus (HIV-1)
# [22] = biological target: 3415.v1.c1 Env pseudovirus (HIV-1)
# [23] = biological target: MS208.A1 Env pseudovirus (HIV-1)
# [24] = biological target: ZM109F.PB4 Env pseudovirus (HIV-1)
# [25] = biological target: ZM249M.PL1 Env pseudovirus (HIV-1)
# [26] = biological target: HIV-16055-2.3 Env pseudovirus (HIV-1)
# [27] = biological target: T257-31 Env pseudovirus (HIV-1)
# [28] = biological target: Q259.d2.17 Env pseudovirus (HIV-1)
# [29] = biological target: Ce1086_B2 Env pseudovirus (HIV-1)
# [30] = biological target: TRO.11 Env pseudovirus (HIV-1)
# [31] = biological target: 7030102001E5(Rev-) Env pseudovirus (HIV-1)
# [32] = biological target: 1012_11_TC21_3257 Env pseudovirus (HIV-1)
# [33] = biological target: AC10.0.29 Env pseudovirus (HIV-1)
# [34] = biological target: 1394C9G1(Rev-) Env pseudovirus (HIV-1)
# [35] = biological target: TRJO4551.58 Env pseudovirus (HIV-1)
# [36] = biological target: 246F C1G Env pseudovirus (HIV-1)
binder,measurement,setting,value
B1,IC50,[1],> 50 µg/mL
same,IC80,[1],> 50 µg/mL
same,MPI,[1],9
same,IC50,[2],> 50 µg/mL
same,IC80,[2],> 50 µg/mL
same,MPI,[2],9
same,IC50,[3],> 50 µg/mL
same,IC80,[3],> 50 µg/mL
same,MPI,[3],32
same,IC50,[4],> 50 µg/mL
same,IC80,[4],> 50 µg/mL
same,MPI,[4],0
same,IC50,[5],0.873 µg/mL
same,IC80,[5],8.19 µg/mL
same,MPI,[5],92
same,IC50,[6],> 50 µg/mL
same,IC80,[6],> 50 µg/mL
same,MPI,[6],4
same,IC50,[7],0.343 µg/mL
same,IC80,[7],1.64 µg/mL
same,MPI,[7],98
same,IC50,[8],0.73 µg/mL
same,IC80,[8],7.1 µg/mL
same,MPI,[8],91
same,IC50,[9],0.792 µg/mL
same,IC80,[9],12.1 µg/mL
same,MPI,[9],84
same,IC50,[10],> 50 µg/mL
same,IC80,[10],> 50 µg/mL
same,MPI,[10],32
same,IC50,[11],1.2 µg/mL
same,IC80,[11],11.8 µg/mL
same,MPI,[11],91
same,IC50,[12],2.05 µg/mL
same,IC80,[12],11.7 µg/mL
same,MPI,[12],93
same,IC50,[13],0.425 µg/mL
same,IC80,[13],1.88 µg/mL
same,MPI,[13],99
same,IC50,[14],> 50 µg/mL
same,IC80,[14],> 50 µg/mL
same,MPI,[14],8
same,IC50,[15],1.7 µg/mL
same,IC80,[15],10 µg/mL
same,MPI,[15],91
same,IC50,[16],> 50 µg/mL
same,IC80,[16],> 50 µg/mL
same,MPI,[16],0
same,IC50,[17],> 50 µg/mL
same,IC80,[17],> 50 µg/mL
same,MPI,[17],4
same,IC50,[18],> 50 µg/mL
same,IC80,[18],> 50 µg/mL
same,MPI,[18],27
same,IC50,[19],1.83 µg/mL
same,IC80,[19],18.5 µg/mL
same,MPI,[19],89
same,IC50,[20],0.565 µg/mL
same,IC80,[20],2.48 µg/mL
same,MPI,[20],97
same,IC50,[21],1.13 µg/mL
same,IC80,[21],> 50 µg/mL
same,MPI,[21],75
same,IC50,[22],0.198 µg/mL
same,IC80,[22],1.41 µg/mL
same,MPI,[22],96
same,IC50,[23],> 50 µg/mL
same,IC80,[23],> 50 µg/mL
same,MPI,[23],17
same,IC50,[24],> 50 µg/mL
same,IC80,[24],> 50 µg/mL
same,MPI,[24],1
same,IC50,[25],> 50 µg/mL
same,IC80,[25],> 50 µg/mL
same,MPI,[25],0
same,IC50,[26],4.66 µg/mL
same,IC80,[26],39.7 µg/mL
same,MPI,[26],83
same,IC50,[27],> 50 µg/mL
same,IC80,[27],> 50 µg/mL
same,MPI,[27],43
same,IC50,[28],> 50 µg/mL
same,IC80,[28],> 50 µg/mL
same,MPI,[28],15
same,IC50,[29],> 50 µg/mL
same,IC80,[29],> 50 µg/mL
same,MPI,[29],0
same,IC50,[30],0.283 µg/mL
same,IC80,[30],1.36 µg/mL
same,MPI,[30],99
same,IC50,[31],> 50 µg/mL
same,IC80,[31],> 50 µg/mL
same,MPI,[31],21
same,IC50,[32],15.7 µg/mL
same,IC80,[32],> 50 µg/mL
same,MPI,[32],53
same,IC50,[33],> 50 µg/mL
same,IC80,[33],> 50 µg/mL
same,MPI,[33],0
same,IC50,[34],> 50 µg/mL
same,IC80,[34],> 50 µg/mL
same,MPI,[34],35
same,IC50,[35],> 50 µg/mL
same,IC80,[35],> 50 µg/mL
same,MPI,[35],28
same,IC50,[36],> 50 µg/mL
same,IC80,[36],> 50 µg/mL
same,MPI,[36],10
B2,IC50,[1],> 50 µg/mL
same,IC80,[1],> 50 µg/mL
same,MPI,[1],31
same,IC50,[2],0.114 µg/mL
same,IC80,[2],0.899 µg/mL
same,MPI,[2],96
same,IC50,[3],0.021 µg/mL
same,IC80,[3],0.122 µg/mL
same,MPI,[3],100
same,IC50,[4],> 50 µg/mL
same,IC80,[4],> 50 µg/mL
same,MPI,[4],35
same,IC50,[5],> 50 µg/mL
same,IC80,[5],> 50 µg/mL
same,MPI,[5],40
same,IC50,[6],> 50 µg/mL
same,IC80,[6],> 50 µg/mL
same,MPI,[6],0
same,IC50,[7],0.013 µg/mL
same,IC80,[7],0.043 µg/mL
same,MPI,[7],100
same,IC50,[8],0.036 µg/mL
same,IC80,[8],0.241 µg/mL
same,MPI,[8],98
same,IC50,[9],0.008 µg/mL
same,IC80,[9],0.05 µg/mL
same,MPI,[9],100
same,IC50,[10],1.98 µg/mL
same,IC80,[10],10.7 µg/mL
same,MPI,[10],97
same,IC50,[11],0.135 µg/mL
same,IC80,[11],0.651 µg/mL
same,MPI,[11],100
same,IC50,[12],1.59 µg/mL
same,IC80,[12],11.6 µg/mL
same,MPI,[12],91
same,IC50,[13],0.412 µg/mL
same,IC80,[13],1.38 µg/mL
same,MPI,[13],100
same,IC50,[14],> 50 µg/mL
same,IC80,[14],> 50 µg/mL
same,MPI,[14],9
same,IC50,[15],0.014 µg/mL
same,IC80,[15],0.051 µg/mL
same,MPI,[15],100
same,IC50,[16],0.083 µg/mL
same,IC80,[16],0.44 µg/mL
same,MPI,[16],99
same,IC50,[17],> 50 µg/mL
same,IC80,[17],> 50 µg/mL
same,MPI,[17],4
same,IC50,[18],> 50 µg/mL
same,IC80,[18],> 50 µg/mL
same,MPI,[18],36
same,IC50,[19],0.012 µg/mL
same,IC80,[19],0.096 µg/mL
same,MPI,[19],100
same,IC50,[20],0.151 µg/mL
same,IC80,[20],0.57 µg/mL
same,MPI,[20],100
same,IC50,[21],1.39 µg/mL
same,IC80,[21],> 50 µg/mL
same,MPI,[21],76
same,IC50,[22],0.054 µg/mL
same,IC80,[22],0.19 µg/mL
same,MPI,[22],100
same,IC50,[23],0.048 µg/mL
same,IC80,[23],0.279 µg/mL
same,MPI,[23],100
same,IC50,[24],0.039 µg/mL
same,IC80,[24],0.18 µg/mL
same,MPI,[24],100
same,IC50,[25],> 50 µg/mL
same,IC80,[25],> 50 µg/mL
same,MPI,[25],2
same,IC50,[26],> 50 µg/mL
same,IC80,[26],> 50 µg/mL
same,MPI,[26],17
same,IC50,[27],0.178 µg/mL
same,IC80,[27],1.17 µg/mL
same,MPI,[27],100
same,IC50,[28],0.362 µg/mL
same,IC80,[28],7.79 µg/mL
same,MPI,[28],91
same,IC50,[29],0.063 µg/mL
same,IC80,[29],0.303 µg/mL
same,MPI,[29],100
same,IC50,[30],0.094 µg/mL
same,IC80,[30],0.336 µg/mL
same,MPI,[30],100
same,IC50,[31],0.172 µg/mL
same,IC80,[31],0.797 µg/mL
same,MPI,[31],100
same,IC50,[32],0.013 µg/mL
same,IC80,[32],0.085 µg/mL
same,MPI,[32],100
same,IC50,[33],> 50 µg/mL
same,IC80,[33],> 50 µg/mL
same,MPI,[33],0
same,IC50,[34],> 50 µg/mL
same,IC80,[34],> 50 µg/mL
same,MPI,[34],34
same,IC50,[35],0.016 µg/mL
same,IC80,[35],0.068 µg/mL
same,MPI,[35],100
same,IC50,[36],> 50 µg/mL
same,IC80,[36],> 50 µg/mL
same,MPI,[36],11
